Data reported in PMC2850121 (Structure (London, England : 1993), 2010).
Where two headings read alike, the source gives them in different places.

Legend:
[1] = target: C-terminally biotinylated IL-13Rα1 (UniProt P78552); assay: SPR
[2] = target: C-terminally biotinylated IL-13Rα2 (human) (UniProt Q14627); assay: SPR
[3] = target: T1, Human IL-13 (amino acids 21–132), wild type, fully glycosylated (human, UniProt P35225 35-146, fully glycosylated); assay: ITC
IL-13 F107A (human) = assay: ITC
IL-13 K104A (human) = assay: ITC
[4] = target: T1, Human IL-13 (amino acids 21–132), wild …; assay: ITC; remark: listed apart in the source

| koff [1] [s⁻¹] | kon [1] [M⁻¹ s⁻¹] | koff [2] [s⁻¹] | kon [2] [M⁻¹ s⁻¹] | Molecule | other results |
| --- | --- | --- | --- | --- | --- |
| 0.00487 | 1.87e+06 |  |  | IL-13 R11A (ligand) |  |
|  |  | 0.000152 | 1.79e+07 | IL-13 I14A (ligand) |  |
|  |  | 0.000945 | 1.15e+07 | IL-13 F107A (ligand) |  |
|  |  | 0.00271 | 9.64e+06 | IL-13 K104A (ligand) |  |
| 0.00771 | 1.31e+06 | 1.06e-05 | 9.16e+06 | IL-13 K105A (ligand) |  |
| 0.00463 | 3.53e+06 |  |  | IL-13 L101A (ligand) |  |
| 0.00751 | 2.74e+06 |  |  | IL-13 D87A (ligand) |  |
| 0.00445 | 2.82e+06 |  |  | IL-13 E15A (ligand) |  |
| 0.00443 | 3.26e+06 |  |  | IL-13 V18A (ligand) |  |
| 0.00488 |  |  |  | IL-13 T88A (ligand) |  |
|  |  |  |  | IL-13Rα1 soluble extracellular domain (receptor, UniProt P78552 22-343, looked up, fully glycosylated) GGGGAAPTETQPPVTNLSVSVENLCTVIWTWNPPEGASSNCSLWYFSHFGDKQDKKIAPETRRSIEVPLNERICLQVGSQCSTNESEKPSILVEKCISPPEGDPESAVTELQCIWHNLSYMKCSWLPGRNTSPDTNYTLYYWHRSLEKIHQCENIFREGQYFGCSFDLTKVKDSSFEQHSVQIMVKDNAGKIKPSFNIVPLTSRVKPDPPHIKNLSFHNDDLYVQWENPQNFISRCLFYEVEVNNSQTETHNVFYVQEAKCENPEFERNVENTSCFMVPGVLPDTLNTVRIRVKTNKLCYEDDKLWSNWSQEMSIGKKRNST | dH [3]: -11.4 kcal/mol; stoichiometry N [3]: 0.937 |
|  |  |  |  | IL-13Rα2 ectodomain (amino acids 29–331) (receptor, human, UniProt Q14627 29-331, looked up, fully glycosylated) EIKVNPPQDFEIVDPGYLGYLYLQWQPPLSLDHFKECTVEYELKYRNIGSETWKTIITKNLHYKDGFDLNKGIEAKIHTLLPWQCTNGSEVQSSWAETTYWISPQGIPETKVQDMDCVYYNWQYLLCSWKPGIGVLLDTNYNLFYWYEGLDHALQCVDYIKADGQNIGCRFPYLEASDYKDFYICVNGSSENKPIRSSYFTFQLQNIVKPLPPVYLTFTRESSCEIKLKWSIPLGPIPARCFDYEIEIREDDTTLVTATVENETYTLKTTNETRQLCFVVRSKVNIYCSDDGIWSEWSDKQCW | dH [3]: -20 kcal/mol; stoichiometry N [3]: 0.98; dH (IL-13 F107A (human)): -17.1 kcal/mol; stoichiometry N (IL-13 F107A (human)): 0.949; dH (IL-13 K104A (human)): -20.4 kcal/mol; stoichiometry N (IL-13 K104A (human)): 0.884; dH [4]: -20.1 kcal/mol; stoichiometry N [4]: 0.943 |
